Assay results: PMC4251995

Key:
[1] = biological target: Phosphorylated DesR wild type, full-length (Bacillus subtilis) (UniProt O34723); experiment: SAXS
[2] = biological target: Phosphorylated DesR wild type, full-length (Bacillus subtilis) (UniProt O34723); experiment: SEC

“Phosphorylated DesR wild type, full-length (from UniProt O34723 1-199) (natural protein)” was tested, and the stoichiometry N [1] was 2 and the stoichiometry N [2] was 2.
